Values belong to the binder of their own block, whether it stands above or below them. Where no end group is shown, it is not given here. Me3 = trimethyl-lysine; Me2 = dimethyl-lysine
B2: AIPP3-BAH domain (residues 112-279) (domain or fragment)
chain: GKGKGKRTHFNQFAYDGNTYDLEVPVLLVPEDKSQKPYVAIIKDITQTKDGSMMILGQWFYRPEEAEKRGGGNWQSSDTRELFYSFHRDEVPAESVMHRCVVYFVPAHKQLPKRKNNPGFIVRKVYDTVEKKLWKLTDKDYEDSKQREIDVLVKKTMNVLGDLPDLES
B6: PAIPP2-PHD finger (domain or fragment)
chain: VKVCDICGDAGREDLLAICSGCSDGAEHTYCMREMLDEVPEGDWLCEECAEE

Tests used:
Experiment in all cases: ITC
[1] = target: B6
[2] = target: T1, H3K27me2 (Arabidopsis thaliana, also: biotinylated in pull-down)
T1 chain: LATKAARK(Me2)SAPATGGVKK

[3] = target: T2, H3K27me1 (Arabidopsis thaliana, also: biotinylated in pull-down)
T2 chain: LATKAARK(Me)SAPATGGVKK

[4] = target: B2
[5] = target: T3, AIPP3-BAH domain W170A (Arabidopsis, UniProt Q8RXT5 112-279, W170A)
T3 sequence: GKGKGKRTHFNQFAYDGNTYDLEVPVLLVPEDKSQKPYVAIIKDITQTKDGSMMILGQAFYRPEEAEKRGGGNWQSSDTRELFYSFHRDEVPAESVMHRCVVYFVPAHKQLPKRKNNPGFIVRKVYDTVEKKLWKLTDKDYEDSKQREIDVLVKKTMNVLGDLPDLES

[6] = target: T4, AIPP3-BAH domain D200A (Arabidopsis, UniProt Q8RXT5 112-279, D200A)
T4 sequence: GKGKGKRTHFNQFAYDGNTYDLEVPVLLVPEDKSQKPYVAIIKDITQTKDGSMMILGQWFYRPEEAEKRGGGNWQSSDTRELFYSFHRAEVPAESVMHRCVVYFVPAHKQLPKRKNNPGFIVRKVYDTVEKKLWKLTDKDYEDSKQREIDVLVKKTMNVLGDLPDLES

[7] = target: T5, AIPP3-BAH domain Y149A (Arabidopsis, UniProt Q8RXT5 112-279, Y149A)
T5 sequence: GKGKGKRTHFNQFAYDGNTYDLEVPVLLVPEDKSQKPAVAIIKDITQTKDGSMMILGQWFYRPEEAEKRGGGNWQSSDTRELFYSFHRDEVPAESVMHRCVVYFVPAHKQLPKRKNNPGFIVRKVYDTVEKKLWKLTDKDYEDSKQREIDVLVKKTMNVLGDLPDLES

[8] = target: T6, AIPP3-BAH domain H198A (Arabidopsis, UniProt Q8RXT5 112-279, H198A)
T6 sequence: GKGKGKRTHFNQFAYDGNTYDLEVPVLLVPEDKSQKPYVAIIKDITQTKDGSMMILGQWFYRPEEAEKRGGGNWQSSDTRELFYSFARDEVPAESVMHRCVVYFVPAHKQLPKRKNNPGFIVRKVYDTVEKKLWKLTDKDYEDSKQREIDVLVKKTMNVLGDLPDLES

[9] = target: T7, H3K4me2 (Arabidopsis thaliana)
T7 chain: ARTK(Me2)QTARKSTGGKA

[10] = target: T8, H3K4me1 (Arabidopsis thaliana)
T8 chain: ARTK(Me)QTARKSTGGKA

B1: unmodified H3K4 peptide (peptide)
chain: ARTKQTARKSTGGKA
modifications: zinc-bound PHD finger; limits from the UniProt ZN_FING feature, construct limits not printed unmodified Lys4; H3 1-15 assumed by convention
Kd [1]: 18.6 µM

Binder: B2
Kd [2]: 17.1 µM | Kd [3]: 24.2 µM

B4: H3K4me3 peptide (peptide)
chain: ARTK(Me3)QTARKSTGGKA
Kd [4]: 24.3 µM

Binder: B6
Kd [9]: 30 µM | Kd [10]: 22.1 µM

Further lines, results first:

Kd [4]: 17.3 µM
B3: H3K9me2 peptide (peptide)
chain: ARTKQTARKSTGGKA
modifications: dimethyl-lysine at K9

Kd [5]: 28.5 µM | Kd [4]: 7.4 µM | Kd [6]: 34.1 µM | Kd [7]: 19.8 µM | Kd [8]: 17.4 µM
B5: H3K27me3 peptide (peptide)
chain: LATKAARK(Me3)SAPATGGVKK
